From US20240124586A1 (WUXI BIOLOGICS IRELAND, published 2024) come the findings set out here.

One assay concerns the target T1, FcγRI (UniProt P12314 16-288, limits assumed).
T1 construct: His-tagged by the capture method
Briefly: SPR (Biacore), receptor captured on anti-his chip, 1:1 model. As for the experimental part:
(§1) Antibody binding affinity to FcγRs was detected using Biacore T200 (or Biacore 8K). Each receptor was captured on an anti-his antibody immobilized CM5 sensor chip (GE). Antibodies at different concentrations were injected over the sensor chip at a flow rate of 30 uL/min for an association phase of 60 s, followed by 60 s dissociation. The chip was then regenerated by 10 mM glycine (pH 1.5) after each binding cycle.
(§2) The sensorgrams of blank surface and buffer channel were subtracted from the test sensorgrams. The experimental data was fitted by 1:1 model using Langmiur analysis (for FcγRI) or steady state model (for other receptors). Molecular weight of 150 KDa was used to calculate the molar concentration of antibodies.
Background: SPR reads the build-up and loss of mass on a sensor chip optically.

A further assay has as its target T2, FcγRIIa (R167) (UniProt P12318 36-218, limits assumed).
T2 sequence (looked up): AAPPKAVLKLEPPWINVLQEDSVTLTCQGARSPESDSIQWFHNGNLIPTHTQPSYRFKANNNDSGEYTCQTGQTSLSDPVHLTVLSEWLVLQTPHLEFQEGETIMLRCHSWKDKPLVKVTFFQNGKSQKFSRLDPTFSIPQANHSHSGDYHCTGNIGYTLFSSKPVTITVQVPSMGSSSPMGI
Description: SPR (Biacore), receptor captured on anti-his chip, steady state model. The protocol:
as §1, §2

The next assay addresses FcγRIIIa (F176) (UniProt P08637 17-208). Described as above. The protocol:
as §1, §2

The target in the next assay is T3, FcγRIIb (UniProt P31994 46-217, limits assumed).
T3 sequence (looked up): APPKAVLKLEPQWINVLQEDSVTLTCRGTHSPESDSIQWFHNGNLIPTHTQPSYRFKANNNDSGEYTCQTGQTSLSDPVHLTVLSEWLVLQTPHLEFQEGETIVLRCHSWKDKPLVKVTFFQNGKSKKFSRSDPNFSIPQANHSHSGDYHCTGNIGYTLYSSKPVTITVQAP
The description is as above. The protocol:
as §1, §2

For another assay, the target named is T4, FcγRIIa (H167) (UniProt P12318 36-218, limits assumed).
T4 sequence (looked up): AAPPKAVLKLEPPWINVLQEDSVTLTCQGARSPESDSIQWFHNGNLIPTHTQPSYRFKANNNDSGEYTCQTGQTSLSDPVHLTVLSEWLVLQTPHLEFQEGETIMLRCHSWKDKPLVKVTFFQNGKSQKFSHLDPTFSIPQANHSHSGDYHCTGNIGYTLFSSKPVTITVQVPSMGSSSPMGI
Described as above. As for the experimental part:
as §1, §2

The target of a further assay is FcγRIIIa (V176) (UniProt P08637 17-208). The description is as above. As for the experimental part: as §1, §2
In another assay the target is FcγRIIIb (UniProt O75015 17-200, limits assumed). Described as above. As for the experimental part:
as §1, §2

For assay [1], the target named is T5, human CTLA-4 on engineered 293F cells (W316-293F.hPro1.FL) (human, UniProt P16410 36-223).
T5 construct: whole, on cells; also called human CTLA-4 engineered cells; CTLA-4+ cells
Description: FACS on human CTLA-4 engineered cells, against benchmark BMK1. As for the experimental part:
(§3) 3.16-fold titrated Abs with 1% BSA DPBS from 200 nM to 0.002 nM were added to the cells. Plates were incubated at 4° C. for 1 hour. After wash, […] 1:150 diluted PE-labeled goat anti-human antibody (Jackson 109-115-098) was added to each well and the plates were incubated at 4° C. for 1 hour. The binding of the antibodies onto the cells was tested by flow cytometry and the mean fluorescence intensity (MFI) was analyzed by FlowJo.

Assay [2] has as its target T6, human PD-1 ECD mouse Fc fusion (W305-hPro1.ECD.mFc) (human, UniProt Q15116 25-170).
T6 construct: extracellular domain; In-house protein; also called hPD-1-ECD; human PD-1 coated on the plate
Description: dual-binding ELISA: human PD-1 ECD coated, antibody titrated, bound antibody detected with biotinylated human CTLA-4 ECD and streptavidin-HRP. The protocol:
In order to test whether the bispecific antibodies could bind to both hPD-1 and hCTLA-4, an ELISA assay was developed as below. A 96-well ELISA plate (Nunc MaxiSorp, ThermoFisher) was coated overnight at 4° C. with 0.5 μg/ml antigen-1 (hPD-1-ECD, W305-hPro1.ECD.mFc) in carbonate-bicarbonate buffer. After a 1 hour blocking step with 2% (w/v) bovine serum albumin (Pierce) dissolved in PBS, serial dilutions of the different PD-1×CTLA-4 bispecific antibodies in PBS containing 2% BSA PBS were incubated on the plates for 1 hour at room temperature. Following the incubation, plates were washed three times with 300 μL per well of PBS containing 0.5% (v/v) Tween 20. […] After washing the plates three times, Streptavidin-HRP (Lifetechnologies, #SNN1004) (1:20000 diluted) was added and incubated on the plates for 1 hour at room temperature. After washing six times with […] per well of PBS containing 0.5% (v/v) Tween 20, 100 μL tetramethylbenzidine (TMB) substrate was added for the detection per well. The reaction was stopped after approximately 5 minutes through the addition of […] per well of 2 M HCl. The absorbance of the wells was measured at 450 nm with a multiwall plate reader (SpectraMax® M5e).
In general terms: An ELISA detects its analyte on a solid surface through an enzyme-linked reagent.

The target of assay [3] is T7, human PD-1 on engineered CHO-S cells (W305-CHO-S.hPro1.C6) (human, UniProt Q15116 25-288).
T7 construct: whole, on cells; also called human PD-1 engineered cells; PD-1+ cells
Description: FACS on human PD-1 engineered cells. The method in brief: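 CHO-S cells engineered to express human PD-1 (1×10⁵/well) were incubated with antibodies titrated 3.16-fold from 200 nM to 0.002 nM in 1% BSA DPBS, 1 h at 4 °C. Bound antibody was detected with PE-labeled goat anti-human secondary (1 h, 4 °C) by flow cytometry as MFI.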

The target in assay [4] is T5, human CTLA-4 on engineered 293F cells …. Briefly: FACS on human CTLA-4 engineered cells. As for the experimental part:
as §3

Assay [5] concerns the target T7, human PD-1 on engineered CHO-S cells …. Briefly: FACS competition: antibody titrated against human PD-L1 binding to PD-1; falling curve, half-maximal value labelled EC50 on the sheet. The protocol:
In order to test whether the bispecific antibodies could block hPD-L1 binding to hPD-1 protein, a competitive FACS was conducted. […] Plates were incubated at 4° C. for 1 hour. After wash, the binding of W315-hPro1.ECD.mFc to cell expressive human PD-1 was detected by FITC-labeled goat anti-mouse antibody (abcam 98716 1:125). The competition binding of antibodies to the cells was tested by flow cytometry and the mean fluorescence intensity (MFI) was analyzed by FlowJo.

Assay [6] addresses CTLA-4 (competition assays of Example 15) (UniProt P16410 36-161, limits assumed). Description: FACS competition: antibody titrated against CD80 binding to CTLA-4.

T7 sequence (Q15116 25-288, change not shown): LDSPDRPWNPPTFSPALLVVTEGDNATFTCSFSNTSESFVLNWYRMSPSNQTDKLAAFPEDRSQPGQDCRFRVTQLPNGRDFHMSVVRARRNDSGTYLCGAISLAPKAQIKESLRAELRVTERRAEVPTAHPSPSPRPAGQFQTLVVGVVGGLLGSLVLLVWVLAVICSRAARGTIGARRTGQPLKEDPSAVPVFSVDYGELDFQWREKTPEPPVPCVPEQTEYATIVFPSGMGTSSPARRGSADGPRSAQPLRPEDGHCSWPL
T5 sequence (P16410 36-223, change not shown): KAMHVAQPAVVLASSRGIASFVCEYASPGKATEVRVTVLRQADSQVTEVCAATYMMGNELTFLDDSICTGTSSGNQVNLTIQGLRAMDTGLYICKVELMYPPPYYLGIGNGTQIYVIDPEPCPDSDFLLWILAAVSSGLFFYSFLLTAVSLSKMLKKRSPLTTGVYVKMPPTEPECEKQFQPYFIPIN
FcγRIIIb, sequence (O75015 17-200 limits assumed): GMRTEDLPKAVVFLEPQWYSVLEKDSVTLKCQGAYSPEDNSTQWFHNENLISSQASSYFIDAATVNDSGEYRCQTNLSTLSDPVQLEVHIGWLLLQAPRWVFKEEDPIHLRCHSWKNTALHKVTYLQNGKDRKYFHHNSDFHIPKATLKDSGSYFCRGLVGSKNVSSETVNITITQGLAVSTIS
FcγRIIIa (V176), sequence (P08637 17-208 F176V limits assumed): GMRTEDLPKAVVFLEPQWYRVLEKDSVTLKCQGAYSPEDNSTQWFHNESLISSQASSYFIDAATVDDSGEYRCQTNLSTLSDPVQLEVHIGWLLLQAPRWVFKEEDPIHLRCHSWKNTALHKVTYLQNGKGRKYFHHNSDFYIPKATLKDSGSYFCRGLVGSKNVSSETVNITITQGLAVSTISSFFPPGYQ
FcγRIIIa (F176), sequence (P08637 17-208 limits assumed): as the sequence (P08637 17-208 F176V limits assumed) above, with V160F counted along it
T6 sequence (Q15116 25-170): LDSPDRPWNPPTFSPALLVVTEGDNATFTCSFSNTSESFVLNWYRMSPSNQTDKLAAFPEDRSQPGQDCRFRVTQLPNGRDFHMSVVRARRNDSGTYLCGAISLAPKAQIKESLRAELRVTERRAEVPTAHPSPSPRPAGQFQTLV
CTLA-4 (competition assays of Example 15), sequence (P16410 36-161 limits assumed): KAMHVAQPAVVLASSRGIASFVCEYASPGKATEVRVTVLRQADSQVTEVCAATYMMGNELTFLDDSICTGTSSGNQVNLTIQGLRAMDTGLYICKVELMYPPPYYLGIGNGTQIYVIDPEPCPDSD
T1 sequence (P12314 16-288 limits assumed): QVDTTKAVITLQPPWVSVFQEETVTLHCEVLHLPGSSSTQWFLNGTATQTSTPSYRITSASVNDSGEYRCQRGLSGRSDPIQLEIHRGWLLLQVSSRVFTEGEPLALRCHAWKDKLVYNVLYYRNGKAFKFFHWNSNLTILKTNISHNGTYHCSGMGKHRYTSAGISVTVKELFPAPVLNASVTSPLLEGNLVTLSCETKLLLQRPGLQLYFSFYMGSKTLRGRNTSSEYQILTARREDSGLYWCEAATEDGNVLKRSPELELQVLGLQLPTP

B1: T3U4.E17-2.(2).uIgG1 (E17-Design_2-QQQQ in wild type IgG1 with knobs-into-holes) (bispecific antibody)
heavy 1: not shown
light 1: DIVMTQSPDSLAVSLGERATINCKSSQSLLNSRTRKNYLAWYQQKPGQPPKLLIYWASTRQSGVPDRFSGSGSGTDFTLTISSLQAEDVAVYYCTQSHTLRTFGGGTKVEIKPDIQNPDPAVYQLRDSKSSDKSVCLFTDFDSQTQVSQSKDSDVYITDKCVLDMRSMDFKSNSAVAWSQKSDFACANAFQNSIIPEDTFFPSPESS
heavy 2: QMQLVQSGPEVKKPGTSVKVSCKASGYAFTSYNMYWVRQARGQRLEWIGYIDPYNGDTTYNQKFKGRVTITRDMSTSTAYMELSSLRSEDTAVYYCLTTAYAMDYWGQGTLVTVSSASTKGPSVFPLAPSSKSTSGGTAALGCLVKDYFPEPVTVSWNSGALTSGVHTFPAVLQSSGLYSLSSVVTVPSSSLGTQTYICNVNHKPSNTKVDKRVEPKSCDKTHTCPPCPAPELLGGPSVFLFPPKPKDTLMISRTPEVTCVVVDVSHEDPEVKFNWYVDGVEVHNAKTKPREEQYNSTYRVVSVLTVLHQDWLNGKEYKCKVSNKALPAPIEKTISKAKGQPREPQVCTLPPSREEMTKNQVSLSCAVKGFYPSDIAVEWESNGQPENNYKTTPPVLDSDGSFFLVSKLTVDKSRWQQGNVFSCSVMHEALHNHYTQKSLSLSPGK
light 2: DIQLTQSPSFLSASVGDRVTITCSASSTVNYMHWYQQKPGKAPKLLIYSTSNLASGVPSRFSGSGSGTEFTLTISSLQPEDFATYYCHQWSSYPYTFGQGTKLEIKRTVAAPSVFIFPPSDEQLKSGTASVVCLLNNFYPREAKVQWKVDNALQSGNSQESVTEQDSKDSTYSLSSTLTLSKADYEKHKVYACEVTHQGLSSPVTKSFNRGEC
notes: Order T3-HC / T3-LC / U4-HC / U4-LC; copies: 1 + 1 + 1 + 1
As for B1, the Kd with FcγRI was found to be 1.3 nM; with FcγRIIa (R167), 4830 nM; with FcγRIIIa (F176), 2080 nM; with FcγRIIb, 8070 nM; in the assay with FcγRIIa (H167), 3580 nM; with FcγRIIIa (V176), 644 nM. In the assay with FcγRIIIb, this molecule registered a Kd of 5160 nM.

B2: U6T5.G25.IgG4, bispecific anti-PD-1 x CTLA-4 (as listed in Example 15) (bispecific antibody)
heavy: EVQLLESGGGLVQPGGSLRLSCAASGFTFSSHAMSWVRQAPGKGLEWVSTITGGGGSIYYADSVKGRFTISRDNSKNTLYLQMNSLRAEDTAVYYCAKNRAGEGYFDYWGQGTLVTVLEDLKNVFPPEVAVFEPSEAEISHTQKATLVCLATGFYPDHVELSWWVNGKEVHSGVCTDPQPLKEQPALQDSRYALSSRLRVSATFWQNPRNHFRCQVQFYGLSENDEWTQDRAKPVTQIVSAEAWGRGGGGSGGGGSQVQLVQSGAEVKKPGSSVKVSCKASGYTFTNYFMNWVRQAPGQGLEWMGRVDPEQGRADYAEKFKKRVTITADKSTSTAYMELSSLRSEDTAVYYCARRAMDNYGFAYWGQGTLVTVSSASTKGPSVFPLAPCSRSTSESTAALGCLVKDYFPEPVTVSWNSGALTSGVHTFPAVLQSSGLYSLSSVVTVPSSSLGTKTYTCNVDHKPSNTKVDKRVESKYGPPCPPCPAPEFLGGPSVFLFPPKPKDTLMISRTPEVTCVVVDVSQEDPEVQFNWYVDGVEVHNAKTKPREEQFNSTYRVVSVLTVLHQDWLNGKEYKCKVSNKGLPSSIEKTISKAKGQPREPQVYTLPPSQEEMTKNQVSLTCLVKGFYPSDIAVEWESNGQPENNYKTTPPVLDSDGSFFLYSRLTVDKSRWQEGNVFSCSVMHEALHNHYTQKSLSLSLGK
light 1: SYELTQPLSVSVALGQTARITCGGDNIGNKDVHWYQQKPGQAPVLVIYRDSNRPSGIPEGFSGSNSGNTATLTISRAQAGDEADYYCQVWDSIWVFGGGTKLTVLPDIQNPDPAVYQLRDSKSSDKSVCLFTDFDSQTQVSQSKDSDVYITDKCVLDMRSMDFKSNSAVAWSQKSDFACANAFQNSIIPEDTFFPSPESS
light 2: EIVLTQSPDFQSVTPKEKVTITCSANSALSYMYWYQQKPDQSPKLWVHGTSNLASGVPSRFSGSGSGTDFTLTINSLEAEDAATYYCHHWSNTQWTFGGGTKVEIKRTVAAPSVFIFPPSDEQLKSGTASVVCLLNNFYPREAKVQWKVDNALQSGNSQESVTEQDSKDSTYSLSSTLTLSKADYEKHKVYACEVTHQGLSSPVTKSFNRGEC
notes: kept apart
Take B2: in assay [1], the “fold improvement of EC50 against the benchmark antibody” value was found to be 1.6 fold. The EC50 in assay [2] was found to be 0.071 nM; in assay [3], 1.32 nM; in assay [4], 7.55 nM. The IC50 in assay [5] came to 1.92 nM; in assay [6] it was 0.758 nM.

The Kd is the constant that tells how readily two partners part at equilibrium. A high value points to weaker binding. The term EC50 denotes the midpoint of the concentration-response curve. Read a high EC50 as lower potency in that assay. One may read the IC50 as the concentration that inhibits the measured activity by half. A low value points to greater potency in that assay.
